Results on one molecule are retold here after US20250313625A1 (ELPISCIENCE SUZHOU BIOPHARMA, published 2025).

For assay [1], the target named is T1, LAG3 D1 domain extra loop peptide (biotin labelled (site not stated)).
T1 peptide: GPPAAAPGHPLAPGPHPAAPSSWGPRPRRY
Kind of assay: ELISA format II: biotin labelled LAG3 D1 domain extra loop peptide and antibody co-incubated on streptavidin coated plate, anti-human Fc detection. How it is done: (§1) In ELISA binding assay of format I (FIG. 9A), biotin labelled LAG3 D1 domain extra loop peptide was incubated with ELISA microplate coated anti-LAG3 antibodies. After washing, HRP labeled anti-SA 2nd antibody (Sigma) was added and incubated at 37° C. for 1 hour. Then, 100 μl/well of TMB solution (Biotechnology) was added. After incubation for 15 minutes at room temperature, the reaction was stopped by the addition of 50 μl of 1N HCl. OD 450 nm was read. In ELISA binding assay of format II (FIG. 9B), biotin labelled LAG3 D1 domain extra loop peptide and anti-LAG3 antibodies were co-incubated in ELISA microplate coated with SA. After washing, HRP labeled anti-human Fc 2nd antibody (Sigma) was added and incubated at 37° C. for 1 hour. Then, 100 μl/well of TMB solution (Biotechnology) was added. After incubation for 15 minutes at room temperature, the reaction was stopped by the addition of 50 μl of 1N HCl. OD 450 nm was read.

Assay [2] addresses T1, LAG3 D1 domain extra loop peptide. In words: ELISA format I: biotin labelled LAG3 D1 domain extra loop peptide on plate coated antibody; axis printed as Ab Conc. (nM). As to the method: as §1

B1: BMS-986016 (antibody, V domains shown)
VH: QVQLQQWGAGLLKPSETLSLTCAVYGGSFSDYYWNWIRQPPGKGLEWIGEINHRGSTNSNPSLKSRVTLSLDTSKNQFSLKLRSVTAADTAVYYCAFGYSDYEYNWFDPWGQGTLVTVSS
VL: EIVLTQSPATLSLSPGERATLSCRASQSISSYLAWYQQKPGQAPRLLIYDASNRATGIPARFSGSGSGTDFTLTISSLEPEDFAVYYCQQRSNWPLTFGQGTNLEIK
With B1, the “EC50 (read off the curve)” value in assay [1] is roughly 0.2 nM; in assay [2], roughly 0.08 nM.
